Among the data in publication PMC5421877, “SOCS3 inhibits the pathological effects of IL-22 in non-melanoma skin tumor-derived keratinocytes” (Oncotarget, 2017) are Erk1/2 activation values, retold here.

The assay has as its system Erk1/2 phosphorylation in healthy keratinocytes. Briefly: Western blot of Erk1/2 phosphorylation in healthy keratinocytes (IL-22). The format is cell-based, human. The conditions noted are these: IL-22 time course, no peptide, n = 3. The procedure:
Figure 5 KIR-ESS peptide inhibits IL-22-induced phosphorylation of STAT3 and Erk in healthy and SCC-derived keratinocytes (A) Protein extracts obtained from healthy keratinocytes (n = 3) pre-treated or not with 15 μM (left panel) or 75 μM (right panel), KIR, KIR-ESS and control (Ctrl1 or Ctrl2) peptides, and, then, […], were subjected to WB analysis to detect STAT3 (Tyr705), Erk and MEK phosphorylation. Filters were probed with anti-STAT3, -Erk and –MEK Abs (top). (B) Protein extracts obtained from healthy keratinocytes (n = 3) pre-treated or not with 75 μM KIR-ESS and control (Ctrl1) peptides, and, then, stimulated or not with IL-22 for 10 min, were subjected to immunoprecipitation for IL-22R1 and Jak1, and then analysed by WB to detect phosphorylated and unphosphorylated forms of the proteins. (C) Unphosphorylated and phosphorylated forms of STAT1 (Tyr701) and STAT3 (Tyr705) were monitored in keratinocytes treated with IFN-γ for 15 min by WB analysis (bottom). In all experimental groups, filters were stripped and re-probed with β-actin Ab. (D) Protein extracts were obtained from CAL27 (left panel) or CAL33 (right panel) lines treated or not with 75 μM peptides in presence of IL-22 or IFN-γ. WB was performed to detect basal and phosphorylated STAT1, STAT3 and Erk. D.I. ratio indicates the densitometric intensity of phosphorylated/unphosphorylated target protein. […]

B1: IL-22: cytokine stimulus, R&D Systems (protein, UniProt Q9GZX6 34-179, looked up)
Interleukin-22: APISSHCRLDKSNFQQPYITNRTFMLAKEASLADNNTDVRLIGEKLFHGVSMSERCYLMKQVLNFTLEEVLFPQSDRFQPYMQEVVPFLARLSNRLSTCHIEGDDLHIQRNVQKLKDTVKKLGESGEIKAIGELDLLFMSLRNACI
In the case of B1, the Erk1/2 activation entry is “culminated with STAT3, MEK1/2 and Erk1/2 activation”.
